Changes are numbered by the printed parent chain. In names and notes the source's numbering stands.
B1: VLX9 IgG2 (xi) (antibody)
heavy: QVQLQQFGAELAKPGASVQMSCKASGYTFTNYWIHWVKQRPGQGLEWIGYTDPRTDYTEYNQKFKDKATLAADRSSSTAYMRLSSLTSEDSAVYYCAGGGRVGLGYWGHGSSVTVSSASTKGPSVFPLAPCSRSTSESTAALGCLVKDYFPEPVTVSWNSGALTSGVHTFPAVLQSSGLYSLSSVVTVPSSNFGTQTYTCNVDHKPSNTKVDKTVERKCCVECPPCPAPPVAGPSVFLFPPKPKDTLMISRTPEVTCVVVDVSHEDPEVQFNWYVDGVEVHNAKTKPREEQFNSTFRVVSVLTVVHQDWLNGKEYKCKVSNKGLPAPIEKTISKTKGQPREPQVYTLPPSREEMTKNQVSLTCLVKGFYPSDIAVEWESNGQPENNYKTTPPMLDSDGSFFLYSKLTVDKSRWQQGNVFSCSVMHEALHNHYTQKSLSLSPGK
light: DVFMTQTPLSLPVSLGDQASISCRSSQNIVQSNGNTYLEWYLQKPGQSPKLLIYKVFHRFSGVPDRFSGSGSGTDFTLKISRVEAEDLGVYYCFQGSHVPWTFGGGTKVEIKRTVAAPSVFIFPPSDEQLKSGTASVVCLLNNFYPREAKVQWKVDNALQSGNSQESVTEQDSKDSTYSLSSTLTLSKADYEKHKVYACEVTHQGLSSPVTKSFNRGEC
notes: murine-human chimera; also called VLX9 IgG2 chimera
B2: VLX9 IgG4 PE (xi) (antibody)
heavy: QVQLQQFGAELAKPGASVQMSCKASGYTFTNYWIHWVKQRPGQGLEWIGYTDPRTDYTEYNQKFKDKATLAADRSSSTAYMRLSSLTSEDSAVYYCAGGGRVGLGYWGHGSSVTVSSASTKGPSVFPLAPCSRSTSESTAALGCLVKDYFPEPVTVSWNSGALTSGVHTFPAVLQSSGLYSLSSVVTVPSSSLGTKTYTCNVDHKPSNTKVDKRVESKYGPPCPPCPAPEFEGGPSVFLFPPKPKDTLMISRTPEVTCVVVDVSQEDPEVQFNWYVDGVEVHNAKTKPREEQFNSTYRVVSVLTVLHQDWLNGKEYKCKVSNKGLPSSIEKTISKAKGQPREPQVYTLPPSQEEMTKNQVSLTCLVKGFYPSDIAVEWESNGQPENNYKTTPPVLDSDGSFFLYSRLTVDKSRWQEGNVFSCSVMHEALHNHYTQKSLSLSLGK
light: B1 light
notes: murine-human chimera
B3: VLX9 IgG1 N297Q (xi) (antibody)
heavy: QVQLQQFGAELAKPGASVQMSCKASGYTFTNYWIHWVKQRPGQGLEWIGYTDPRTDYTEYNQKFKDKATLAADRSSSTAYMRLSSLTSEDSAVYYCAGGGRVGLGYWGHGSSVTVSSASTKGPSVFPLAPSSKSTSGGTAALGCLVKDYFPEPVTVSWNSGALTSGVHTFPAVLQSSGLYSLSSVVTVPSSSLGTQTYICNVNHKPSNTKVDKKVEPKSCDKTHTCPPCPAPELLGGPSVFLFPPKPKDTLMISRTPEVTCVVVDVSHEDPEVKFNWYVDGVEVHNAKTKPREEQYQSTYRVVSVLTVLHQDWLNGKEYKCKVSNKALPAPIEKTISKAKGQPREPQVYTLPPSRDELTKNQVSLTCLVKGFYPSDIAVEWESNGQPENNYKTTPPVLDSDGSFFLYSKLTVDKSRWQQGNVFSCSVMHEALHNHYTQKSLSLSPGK
light: B1 light
notes: murine-human chimera
B4: VLX9 IgG (murine) (antibody, V domains shown)
VH: QVQLQQFGAELAKPGASVQMSCKASGYTFTNYWIHWVKQRPGQGLEWIGYTDPRTDYTEYNQKFKDKATLAADRSSSTAYMRLSSLTSEDSAVYYCAGGGRVGLGYWGHGSSVTVSS
VL: DVFMTQTPLSLPVSLGDQASISCRSSQNIVQSNGNTYLEWYLQKPGQSPKLLIYKVFHRFSGVPDRFSGSGSGTDFTLKISRVEAEDLGVYYCFQGSHVPWTFGGGTKVEIK
notes: murine IgG; tied through the names Vx9murH04/Vx9murL04; also called murine VLX9 antibody
B5: VLX8 IgG4 PE (xi) (antibody)
heavy: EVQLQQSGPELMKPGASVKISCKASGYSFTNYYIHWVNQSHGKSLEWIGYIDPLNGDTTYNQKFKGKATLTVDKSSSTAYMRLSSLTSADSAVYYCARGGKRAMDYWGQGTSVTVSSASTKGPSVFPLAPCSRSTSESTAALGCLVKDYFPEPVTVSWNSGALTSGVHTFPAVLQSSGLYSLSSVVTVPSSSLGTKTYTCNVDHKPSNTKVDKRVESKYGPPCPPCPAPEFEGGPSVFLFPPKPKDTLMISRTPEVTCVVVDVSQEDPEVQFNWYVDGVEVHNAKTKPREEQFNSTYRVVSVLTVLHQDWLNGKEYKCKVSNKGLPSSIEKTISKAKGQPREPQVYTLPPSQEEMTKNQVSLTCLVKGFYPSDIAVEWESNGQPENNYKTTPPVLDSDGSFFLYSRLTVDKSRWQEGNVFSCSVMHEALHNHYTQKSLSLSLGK
light: DIQMTQTTSSLSASLGDRVTISCRASQDISNYLNWYQQKPDGTVKLLIYYTSRLYSGVPSRFSGSGSGTDYSLTISNLEQEDIATYFCQQGNTLPWTFGGGTKLEIKRTVAAPSVFIFPPSDEQLKSGTASVVCLLNNFYPREAKVQWKVDNALQSGNSQESVTEQDSKDSTYSLSSTLTLSKADYEKHKVYACEVTHQGLSSPVTKSFNRGEC
notes: murine-human chimera; tied through the names Vx8mur-H03/Vx8murL03 full length chains, not by an explicit VLX8 statement; also called VLX8 IgG4PE chimera
B6: VLX8hum_08 IgG2 (antibody, V domains shown)
VH: EVQLVQSGAEVKKPGESLKISCKGSGYSFTNYYIHWVRQMPGKGLEWMGYIDPLNGDTTYNQKFKGQVTISADKSISTAYLQWSSLKASDTAMYYCARGGKRAMDYWGQGTLVTVSS
VL: DIQMTQSPSSLSASVGDRVTITCRASQSISNYLNWYQQKPGKAPKLLIYYTSRLYSGVPSRFSGSGSGTDFTLTISSLQPEDFATYYCQQGNTLPWTFGQGTKVEIKR
B7: VLX9 IgG1 (xi) (antibody)
heavy: not shown
light: B1 light
notes: murine-human chimera
B8: VLX4 IgG1 (xi) (antibody)
heavy: not shown
light: DVLMTQTPLSLPVNLGDQASISCRSRQSIVHTNGNTYLGWFLQKPGQSPKLLIYKVSNRFSGVPDRFSGSGSGTDFTLTISRVEAEDLGVYYCFQGSHVPYTFGGGTKLEIKRTVAAPSVFIFPPSDEQLKSGTASVVCLLNNFYPREAKVQWKVDNALQSGNSQESVTEQDSKDSTYSLSSTLTLSKADYEKHKVYACEVTHQGLSSPVTKSFNRGEC
notes: murine-human chimera, human IgG1, human kappa
B9: VLX4 IgG1 N297Q (xi) (antibody)
heavy: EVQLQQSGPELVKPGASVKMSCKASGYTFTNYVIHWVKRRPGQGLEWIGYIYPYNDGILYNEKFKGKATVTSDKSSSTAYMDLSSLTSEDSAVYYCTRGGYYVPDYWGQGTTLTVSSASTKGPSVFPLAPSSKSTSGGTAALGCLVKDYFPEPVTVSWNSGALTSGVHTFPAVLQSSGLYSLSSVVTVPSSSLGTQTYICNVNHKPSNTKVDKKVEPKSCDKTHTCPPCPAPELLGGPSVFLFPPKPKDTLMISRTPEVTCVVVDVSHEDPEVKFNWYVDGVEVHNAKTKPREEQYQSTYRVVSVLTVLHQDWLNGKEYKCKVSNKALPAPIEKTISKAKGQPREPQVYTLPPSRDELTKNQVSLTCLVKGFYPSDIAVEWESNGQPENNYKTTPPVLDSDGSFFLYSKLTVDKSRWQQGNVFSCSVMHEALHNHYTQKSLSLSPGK
light: B8 light
notes: murine-human chimera, human IgG1-N297Q, human kappa
B10: VLX8hum_07 IgG2 (antibody, V domains shown)
VH: QVQLVQSGAEVKKPGSSVKVSCKASGYSFTNYYIHWVRQAPGQGLEWMGYIDPLNGDTTYNQKFKGRVTITADESTSTAYMELSSLRSEDTAVYYCARGGKRAMDYWGQGTLVTVSS
VL: B6 VL
B11: VLX8hum_06 IgG2 (antibody, V domains shown)
VH: B10 VH with S16A, I70M, A72R, E74T, A79V
VL: B6 VL
B12: VLX8hum_09 IgG2 (antibody, V domains shown)
VH: B10 VH with N61A, K65Q
VL: B6 VL
B13: VLX8 IgG1 N297Q (xi) (antibody)
heavy: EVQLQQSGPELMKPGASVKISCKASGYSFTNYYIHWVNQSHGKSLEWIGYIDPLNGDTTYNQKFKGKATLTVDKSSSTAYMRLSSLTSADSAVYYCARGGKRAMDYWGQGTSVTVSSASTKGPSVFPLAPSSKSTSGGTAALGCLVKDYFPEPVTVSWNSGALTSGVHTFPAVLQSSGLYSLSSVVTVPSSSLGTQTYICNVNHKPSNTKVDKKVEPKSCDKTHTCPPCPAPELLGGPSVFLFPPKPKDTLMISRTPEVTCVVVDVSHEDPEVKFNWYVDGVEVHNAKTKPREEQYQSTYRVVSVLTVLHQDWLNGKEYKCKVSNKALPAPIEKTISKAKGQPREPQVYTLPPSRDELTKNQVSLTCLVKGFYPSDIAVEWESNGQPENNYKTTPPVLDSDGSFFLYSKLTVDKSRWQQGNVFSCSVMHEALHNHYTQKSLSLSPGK
light: B5 light
notes: murine-human chimera

Target: T1, recombinant human His-CD47 (human, UniProt Q08722 19-139)
T1 construct: bought reagent; also called His-tagged human CD47 (Acro Biosystems); not shown: His tag
Assay: ELISA, adsorbed His-CD47, pH 6
Experimental: (§1) Binding by soluble anti-CD47 mAbs to immobilized recombinant human CD47 and to human CD47 expressed on cells was measured in vitro. For the in vitro binding to recombinant CD47, His-CD47 (AcroBiosystems) was adsorbed to high-binding microtiter plates overnight at 4° C. The wells were washed and varying concentrations of anti-CD47 mAbs were added to the wells in buffers with a of either pH 6 or pH 8 for 1 hour. The wells were washed and then incubated with HRP-labelled secondary antibody for 1 hour at pH 6 or pH 8 followed by addition of peroxidase substrate. The apparent affinities were calculated using non-linear fit model (Graphpad Prism).

Binder	Kd
B1	0.13 nM
B2	0.133 nM
B3	0.099 nM
B4	0.091 nM

Target: T1, recombinant human His-CD47
Assay: ELISA, adsorbed His-CD47, pH 8
Experimental: as §1

Binder	Kd
B1	0.137 nM
B2	0.16 nM
B3	0.135 nM
B4	0.076 nM

Target: T2, human CD47 (human, UniProt Q08722 19-292)
T2 construct: also called hCD47; CD47 on OV10 hCD47 cells, human RBCs, Jurkat cells and normal human cells
Assay: flow cytometry on freshly isolated human RBCs, FITC-labelled donkey anti-human antibody, MFI
Experimental: FIG. 4A. Binding of VLX8 Humanized mAbs to Human RBCs. […] RBCs were incubated for 1 hr at 37° C. with various concentrations of VLX8 mAbs, washed and incubated for 1 hr with FITC-labeled donkey anti-human antibody. Cells were washed and antibody binding measured using flow cytometry.
(§2) Binding activities of chimeric and humanized VLX4, VLX8, and VLX9 mAbs to human CD47 on hRBCs were also determined using flow cytometry.

Binder	EC50 (read off the curve)
B5	~0.2 nM

Target: T2, human CD47
Assay: as above
Remark: another data set of the same source
Experimental: FIG. 4B. Binding of VLX8 Humanized mAbs to Human RBCs. […] RBCs were incubated for 1 hr at 37° C. with various concentrations of VLX8 mAbs, washed and incubated for 1 hr with FITC-labeled donkey anti-human antibody. Cells were washed and antibody binding measured using flow cytometry.
as §2

Binder	EC50 (read off the curve)
B6	~0.7 nM

Target: T2, human CD47
Assay: as above
Remark: another data set of the same source
Experimental: FIG. 7. Binding of VLX9 Humanized mAbs to Human RBCs. […] RBCs were incubated for 60 minutes at 37° C. with various concentrations of VLX9 mAbs, washed and incubated for 1 hr with FITC-labelled donkey anti-human antibody. Cells were washed and antibody binding measured using flow cytometry.
as §2

Binder	EC50 (read off the curve)
B1	~0.6 nM

Target: T2, human CD47
Assay: flow cytometry, human RBCs
Experimental: as §2

Binder	Kd
B1	0.742 nM
B7	0.381 nM
B2	0.126 nM
B3	0.19 nM
B8	0.104 nM
B9	0.092 nM
B6	0.82 nM
B10	0.671 nM
B11	0.246 nM
B12	1.74 nM
B5	0.077 nM
B13	0.091 nM

Target: T2, human CD47
Assay: cell ELISA, OV10 hCD47 cells
Experimental: OV10 hCD47 cells were grown in IMDM medium containing 10% heat inactivated fetal bovine serum (BioWest; S01520). […] Cells were washed, various concentrations of purified antibodies added in IMDM and incubated at 37° C. for 1 hr in […]. Cells were then washed with media and incubated for an additional hour at 37° C. with HRP labelled secondary anti-human antibody (Promega) diluted 1/2500 in media. Cells were washed three times with PBS, and the peroxidase substrate 3,3′, 5,5′-tetramethylbenzidine was added (Sigma; Catalog #T4444). […] The apparent binding affinities of these clones to human OV10 hCD47 cells was determined by non-linear fit (Prism GraphPad software).

Binder	Kd
B1	0.88 nM
B7	0.28 nM
B2	0.293 nM
B3	0.275 nM
B8	0.315 nM
B9	0.258 nM
B6	0.464 nM
B10	0.46 nM
B11	0.403 nM
B12	0.68 nM
B5	0.056 nM
B13	0.042 nM
